Source: PMC9825171 (Nucleic Acids Research, 2022)
One block for each molecule: values may come before it.

Key:
RBPJ (53–474) = RBPJ (53–474) (Mus musculus, UniProt P31266); experiment: ITC binding of L3MBTL3 constructs and peptides to native RBPJ; details: 25°C; for Kd / K: 50 mM sodium phosphate pH 6.5, 150 mM NaCl, one site binding model; for Kd: mean of at least three independent experiments; for K: mean of at least three independent experiments ± SD, NBD = no binding detected
RBPJ = details: read-out: affinity for RBPJ; ref [19],[20]; cited from earlier work
[1] = pH 6.5, mean of at least three independent experiments ± SD

Chain of RBPJ (53–474) (P31266 53-474): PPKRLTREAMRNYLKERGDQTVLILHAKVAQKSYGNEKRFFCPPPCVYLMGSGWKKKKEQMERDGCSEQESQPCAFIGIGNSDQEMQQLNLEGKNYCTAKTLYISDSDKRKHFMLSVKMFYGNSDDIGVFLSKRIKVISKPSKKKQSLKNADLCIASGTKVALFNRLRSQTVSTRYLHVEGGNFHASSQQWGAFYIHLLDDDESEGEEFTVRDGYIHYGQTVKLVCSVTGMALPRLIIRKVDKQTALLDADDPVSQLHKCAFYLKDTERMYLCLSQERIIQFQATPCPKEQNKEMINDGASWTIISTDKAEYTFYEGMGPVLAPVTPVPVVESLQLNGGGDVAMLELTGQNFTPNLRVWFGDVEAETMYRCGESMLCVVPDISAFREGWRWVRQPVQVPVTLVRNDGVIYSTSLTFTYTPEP

Kd (RBPJ (53–474)): 1900 nM
ΔG° (RBPJ (53–474); [1]): -7.7 ± 0.2 kcal/mol
–TΔS° (RBPJ (53–474); [1]): 2.9 ± 1.8 kcal/mol
B1: 1–523: human L3MBTL3 fragment, N-terminal region through the MBT domains (residues 1–523) (protein, UniProt Q96JM7 1-523, looked up, fragment)
chain: MTESASSTSGQEFDVFSVMDWKDGVGTLPGSDLKFRVNEFGALEVITDENEMENVKKATATTTWMVPTAQEAPTSPPSSRPVFPPAYWTSPPGCPTVFSEKTGMPFRLKDPVKVEGLQFCENCCQYGNVDECLSGGNYCSQNCARHIKDKDQKEERDVEEDNEEEDPKCSRKKKPKLSLKADTKEDGEERDDEMENKQDVRILRGSQRARRKRRGDSAVLKQGLPPKGKKAWCWASYLEEEKAVAVPAKLFKEHQSFPYNKNGFKVGMKLEGVDPEHQSVYCVLTVAEVCGYRIKLHFDGYSDCYDFWVNADALDIHPVGWCEKTGHKLHPPKGYKEEEFNWQTYLKTCKAQAAPKSLFENQNITVIPSGFRVGMKLEAVDKKNPSFICVATVTDMVDNRFLVHFDNWDESYDYWCEASSPHIHPVGWCKEHRRTLITPPGYPNVKHFSWDKYLEETNSLPAPARAFKVKPPHGFQKKMKLEVVDKRNPMFIRVATVADTDDHRVKVHFDGWNNCYDYWIDAD
K (RBPJ (53–474)): 5.4 ± 0.9 × 10^5 M^−^1

B2: RITA1: corepressor, RBPJ interacting Tubulin associated protein 1 (protein, UniProt Q96K30 1-269, looked up)
RBPJ-interacting and …: MKTPVELAVSGMQTLGLQHRCRGGYRVKARTSYVDETLFGSPAGTRPTPPDFDPPWVEKANRTRGVGKEASKALGAKGSCETTPSRGSTPTLTPRKKNKYRPISHTPSYCDESLFGSRSEGASFGAPRMAKGDAAKLRALLWTPPPTPRGSHSPRPREAPLRAIHPAGPSKTEPGPAADSQKLSMGGLHSSRPLKRGLSHSLTHLNVPSTGHPATSAPHTNGPQDLRPSTSGVTFRSPLVTSRARSVSISVPSTPRRGGATQKPKPPWK
Kd (RBPJ): ~1000 nM

Kd (RBPJ (53–474)): 1500 nM
ΔG° (RBPJ (53–474); [1]): -7.9 ± 0.03 kcal/mol
ΔH° (RBPJ (53–474); [1]): -7.2 ± 0.1 kcal/mol
–TΔS° (RBPJ (53–474); [1]): -0.7 ± 0.1 kcal/mol
B3: 1–197: human L3MBTL3 fragment, the N-terminus (1–197) (protein, UniProt Q96JM7 1-197, looked up, fragment)
chain: MTESASSTSGQEFDVFSVMDWKDGVGTLPGSDLKFRVNEFGALEVITDENEMENVKKATATTTWMVPTAQEAPTSPPSSRPVFPPAYWTSPPGCPTVFSEKTGMPFRLKDPVKVEGLQFCENCCQYGNVDECLSGGNYCSQNCARHIKDKDQKEERDVEEDNEEEDPKCSRKKKPKLSLKADTKEDGEERDDEMENK
K (RBPJ (53–474)): 6.6 ± 0.3 × 10^5 M^−^1

binding to RBPJ, in words (RBPJ (53–474)): no detectable binding
B4: 198–523: human L3MBTL3 fragment, the MBT domains (198–523) (protein, UniProt Q96JM7 198-523, looked up, fragment)
chain: QDVRILRGSQRARRKRRGDSAVLKQGLPPKGKKAWCWASYLEEEKAVAVPAKLFKEHQSFPYNKNGFKVGMKLEGVDPEHQSVYCVLTVAEVCGYRIKLHFDGYSDCYDFWVNADALDIHPVGWCEKTGHKLHPPKGYKEEEFNWQTYLKTCKAQAAPKSLFENQNITVIPSGFRVGMKLEAVDKKNPSFICVATVTDMVDNRFLVHFDNWDESYDYWCEASSPHIHPVGWCKEHRRTLITPPGYPNVKHFSWDKYLEETNSLPAPARAFKVKPPHGFQKKMKLEVVDKRNPMFIRVATVADTDDHRVKVHFDGWNNCYDYWIDAD
K (RBPJ (53–474)): NBD
